Source: the nanobody polyreactivity screen of Harvey et al. (2022)

test: yeast display, Sf9 membrane polyspecificity reagent, FACS + sequencing; frameworks hold sequencing errors
Procedure, shortened: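 Using colony PCR, genes from sorted yeast display clones were amplified, then sequenced on MiSeq at 2 × 250 and filtered by CDR length. The clones had been stained with 10% biotinylated, detergent-solubilized Sf9 membrane reagent for 1 hour at 4 °C and sorted by FACS into low and high (top ~1%) gates on anti-HA and streptavidin fluorescence. Polyreactivity labels come from the gate of origin.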

Row | Sequence | polyreactivity (PSR sort gate)
1 | QVQLVESGGGLVQAGGSLRLSFAASGLIGRYAMGWYRQAPGKERELVAVITSGDSTYYADSVKGRFTISRDNAKNTVYLQMNSLKQEDTAVYYCAADSYRRWGNLFTGNEYDSWGQGTQVTVSS | low polyreactivity
2 | QVQLVESGGGLVQAGGSLRLSCAASGYIFLRNAMGWYRQAPGKERELVAAIRRTGGSTYYADSVKGRFTISRDNAKHTVYLQMNSLKPEDTAVYYCAKRSYTGYESWGQGTQVTVSS | low polyreactivity
3 | QVQLVESGGGLVQAGGSLRLSCAASGSTFWYYVMGWYRQAPGKERELVAAIDWTGDSTYYADSVKGRFTISRDNAKNTVYLQMNSLKPVDTAVYYCAAQKYYPYSYYLNNDYWGLGTQVTVSS | low polyreactivity
4 | QVQLVESGGGLVQAGGSLRLSCAASGITFYVNAMGWYRQAPGKERELVAVITFGGGSTYYADSVKGRFTISRDNAKNTVYLQMNSLKPEDTAVYYCAKDPTYSPYLPGPIFYYKEDYWGQGTQVTVSS | low polyreactivity
5 | QVQLVESGGGLVQAGGSLRLSCAASGLTFKVYAMGWYRQAPGKERELVAAISWSGGSTYYADSVKGRFTISRDNAKNTVYLQMNSLKPEDTAVYYCAARGYAWYRGNYDYWGQGTQVTVSS | high polyreactivity
6 | QVQLVESGGGLVQAGGSLRLSCAASGFIFVIYGMGWYRQAPGKERELVAAISRGGSTYADSVKGRFTISRDNAKNTVYLQMNSLKPEDTAVYYCNARLYKRGGFGYYYWGQGTQVTVSS | high polyreactivity
7 | QVQLVESGGGLVQAGGSLRLSCAASGITFTYYVMGWYRQAPGKERELVAAITWRGGRTRYADSVKGRFTISRDNAKNTVYLQMNSLKPEDTAVYYCAADLHQRRYYYWGQGTQVTVSS | high polyreactivity
8 | QVQLVESGGGLVQAGGSLRLSCAASGRIFPYYAMGWYIQAPGKERELVAAIDGIGDTTYYADSVKGRFTISRDNAKNTVYLQMNSLKPEDTAVYYCNADGDAYYWGSYDEEDYWGQGTQVTVSS | low polyreactivity
9 | QGQLVESGGGLVQAGGSLRLTCAASGSIFYVYDIGWYRPAPGKERELVANIRDGGITYADSVKGRFTISRDNAKYTVYLQMNSLKPEDTAVYYCARDDTSPGYGDQSSNAAYYYWGQGTQVTVSS | low polyreactivity
10 | QVQLEESVGGLVQAGGSLRLSCAASGRIFVRNAMGWYRQAPGKERELVATITSIGGRTYYADSVKGRFTISRDNAKNTVYLQMNSLKPEDTAVYYCAAYNTQSYPAYLRYDYWGQGTQVTVSS | low polyreactivity
11 | QVQLVESGGGLVQAGGSLRLSCAASGFISDDYAMGWYRQAPGKERELVAAISDSGVDTYYADSVKGRFTISRDNAKNTVYLLMNSLKPEDTAVYYCATLTYASNRYGYWGQGTHVTVSS | low polyreactivity
12 | QVQLVESGGGLVQAGGSLRLSCASSGFTFRGYAIGWYRQAPGKERELVAAITGGGSTNYADSVKGRFTISRDNAKNTVYLQMNSLKPEDTAVYYCAADASWALFAWAHYDYWGEGTQVTVSS | low polyreactivity
13 | QVQLVESGGGLVQAGGSLRLSCAASGFIFADNAMGWYRQAPGKERELVAGITSGGITNYADSVKGRFTISRDNAKNTVYLQMNSLKQVDTAVYYCAVYYRRWFSRYDYWGQGTQVTVSS | low polyreactivity
14 | QVQLVESGGGLVQAGGSLRLSCAASGSIFWQYAMGWYRQAPGTERELVAAISSRGGSTYYADSVKGRFTISRDNAKNTVYLQMNTLKPEDTAVYYCAAHSVVRSYAARDSGYDYWGQGTQVTVSS | high polyreactivity
15 | QVQLVESGGGLVQAGGSLRLSCASSGSTFYSYVMGWYRQAPGKERELVAVISNDGSTNYADSVKGRFTISRDNAKNSVYLQMNSLKPEDTAVYYCDALKFVRAYRYYYWGQGTQVTVSS | low polyreactivity
16 | KVQLQESDGALVQAGGSLRLSCAASGSISPQYYMGWYRQAPGKEREFVAISKGTTTYYADSVKGRLTISRVNAKNTVYLQMNSLKPEDTAVYCCAAGRWLQKVPAYWDQGTQVTVSS | low polyreactivity
17 | QVQLVESGGGLVQAGGSLRLSCAASGRTLGPYTMGWYRQAPGKERELVAVISSRTGRTYYADSVKGRFTISRDNAKNTVYLQMNSLKPEDTAVYYCNAGGRYHAPSGDYWGQGTQVTVSS | low polyreactivity
18 | QVQLVESGGGLVQAGGSLRLSCAASGSIFKSYAMGWYRQAPGKERELVAAISGRTGSTYYADSVKGRFTISRDNAKNTVSLQMNSLKPEDTAVYYCAAKSQSLYPFAMNYWGQGTQVTVSS | high polyreactivity
19 | QVQLVESGGGLVQAGGSLRLSCAASGSIAGNAMGWYRQARGKEREMVAAITFRGSGTYYADSVKGRFTISRDNAKKTVYLQMNSLKPEDTAVYYCNAYRRGLSGYGYWGQGTQVTVSS | high polyreactivity
20 | QVQLVESGGGLVQAGGRLRLSCAASGRIFDPYAMGWCRQAPGKESELVASISWSGGRTYYADSVKGRFTISRDNAKNTVYLQMNSLKPEDTAVYYCAAREWYRYKVRFDYWGQGTQVTVSS | high polyreactivity

Row | Sequence | polyreactivity (PSR sort gate)
21 | QVQLVESGGGLFQAGGSLRLSCAASGFTFVYYAMGWYRQAPGKERELVASISGGGRTYYADSVKGRFTISRENAKNTGYLQMNSLIPEDTAVYYCAARYWDYRNRWLYVYWGQGTQLTVSS | high polyreactivity
22 | QVQLVESGGGLVQAGGSLRLSCAASGLIFSPYAMGWYRQAPGKVREFVAAITSRGGTYYADSVKGRFTISRDNAKNTVYLQMNSLKPEDTAVYYCAARNNRYPLYNYWGQGTQVTVSS | low polyreactivity
23 | QVQLVESGGGLVQAGGSLRLSCADSGSIVLVNAMGWSRQAPGKEREMVAAITYGGDSTYYADSVKGRFTISRDNAKNSVYFQINSLKREDTAVYYFAADAWVGWHDEYDYWGQGTQVTVSS | low polyreactivity
24 | QVQLVESGGGLVQAGGSLRLSCAASGLTFPFYTMGWYRQAPGKERELVAAISRRGGSTYYADSVKGRFTISRDNAKNTDYLQMNSMKPVDTAVYYCAADKYSWYDYWGQGTEVTVSS | low polyreactivity
25 | QVQLVESGGGLVQAGGSLRLSCAASVFIFGTNAMGWYRQAPGKERELVASISSTGGSTYYADSVKGRLTISRDNAKNTVYLQMNSLIPEDNAVSFCASDHYPEYIRYVPGVDYWGQGTQVTVSS | low polyreactivity
26 | QVQLVESGGGLVQAGGSLRLSCAASGRIFYSYAMGWYRQAPGKDRELVAAITRTGGNTYYADSVKGRFTISRDNAKNTVYLQMNSLKPEDTAVYYCNAEYWKEHYPEIYYSWGQGTQVTVSS | low polyreactivity
27 | QVQLVESGGGLVQAGGSLRLSCAASGFIFRYNAMGWYRQAPGKERELVAVITSGDNTYYADSVKGRFTISRDNAKNTVYLQMNSLKPEDTAVYYCAARYRHYFVRGGYWGQGTQVTVSS | high polyreactivity
28 | QVQLVESGGGLVQAGGSLRLSCAASGRIFYSNAMGWYRQAPGKERELVAAITTSGASTYYADSVKGRFTISRDNAKNTVYLQMNSLKPEDTSVYYCATYAVVYPFAMDYWGQGTQVTVSS | low polyreactivity
29 | QVQLVESGGGLVQAGGSLRLSCAASGSTFRYNAMGWYRQAPGKERELVASITWSGGDTYYADSVKGRFTISRDNAKNTVYLQMNSLKPEDTAVYYCAKKGYASRYFIYDYWGQGTQVTVSS | low polyreactivity
30 | QVQLVESGGGLVQAGGSPRLSCADSGGIFGIYAMGWYRPAPGKERELVAAIRRGGSTSYADSVKGRFTISRDNAMNTVYLQMNSLKPEDTAVYYCAAGSYYRYGYWGQGTQVTVSS | high polyreactivity
31 | QVQLHESVGRLVQEGGGLRVSCAASGSISSTGFMGWSRQAPGKEGEPVAAIAPGTTTYYADSVKGRFTISRDNAKNTVYLQMNCLRPEDTAVYYCAVYTDNRVAFLYWGQGTQVTVSS | low polyreactivity
32 | QVHLVESGGGLVQAGGSLSLSCAASGFTYTSYAMGWYRQAPGTEREFVAAIRRSGSGTYYADSVKGRFTISRVNAKNTVYLQMNSLNPEDTAVYYCAVVPPRLYYHYDYWGQGTQVTVSS | high polyreactivity
33 | QVQLEESAGGLVQAGGSLRLSCAASGFTLYYYSMGWYRKAPGKERELVAAIAVSGTSTYYADSVKGRFTISRDNAKNTVYLQMNSLKPEDTAVYYCNKVFRVYQTFKAWGRDYWGQGTQVTVSS | high polyreactivity
34 | QVQLVESGGGLVQAGRSLRLTCAASGSTFSIYVMGWYRQAPGKERELVAAITWSDGIKYYADSVKGRFTISRDNAKNTVYLQMNSLKRDDTAVYYCRDSHPSYRPGTVRYDYLGQGTQVTVSS | low polyreactivity
35 | QVQLVESGGGLVQAGGSLSLSCAASGRTFYYYAMGWYRQAPGKERELVAAITSRGTSTYYADSVKGRFTISRDNAKNTVYLQMNSLKPEDTAVYYCAAGFISYYGNCYDYWGQGTQVTVSS | high polyreactivity
36 | QVQLVESGGGLVQAGGSLRLSCAASGNIFSDYAMGWYRQAPGKERELVAAISSGGNTNYADSVKRRFSISRDNAKNTVYLEMNSLKPEDTAVYYCAAVYNTTYTLLPEYSDVKYYYWGQGTQVTVSS | low polyreactivity
37 | QVQLVESGGGLVQAGGSLRLSCAASGSTSQINAMGWYRQAPGKERELVAAITWSTGTTYYADSVKGRFTISRDNAKNTVYLQMTSLKPEDTAVYYCAAERAILSSDKQSLWRFDYWGQGTQVTVSS | low polyreactivity
38 | QVQLVESGGGLVQAGGSLRLSCAASGYTFEYYAMGWYRQAPGKERELVAAISWSGGDTYYADSVKGRFTISRDNAKNTVYLQMNSLNPEDTAVYYCAAVRYYRRRTGSYYHYDYWGQGTQVTVSS | low polyreactivity
39 | QVQHVESGGGLFKAGGTLRLSCAASGRTIYPYAMVLYIQAPGKESELVAAIRWSGGSTYYADSVKGRFTISRDNSKNTVYLQMNSLKPVDTAVYYCNADWKSYRGPIVDYWGQGTQVSVSS | low polyreactivity
40 | QVQLVESGGGLVQAGGSLRLSCAASGRTFAGYAMGWYRQAPGKERELVAAISGSGGRTYYADSVKGRFTISRDNAKNTVYLQMNSLKPEDTAVYYCAASQRVYIARSDYWGQGTQATVSS | high polyreactivity
